Test results as given in the nanobody polyreactivity screen of Harvey et al. (2022).

Assay: yeast display, Sf9 membrane polyspecificity reagent, FACS + sequencing; frameworks hold sequencing errors
In short: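 Synthetic nanobody libraries on Saccharomyces cerevisiae BJ5465 were galactose-induced for 36–48 hours, stained 1 hour at 4 °C with 10% biotinylated, detergent-solubilized Sf9 membrane reagent and enriched on streptavidin microbeads. FACS then separated cells into low and high (top ~1%) gates by anti-HA (expression) and streptavidin (reagent binding) fluorescence. Genes were colony-PCR amplified, MiSeq 2 × 250 sequenced and CDR-length filtered. A clone's polyreactivity label is that of its gate of origin.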

Sequence	polyreactivity (PSR sort gate)
QVQLVESGGGLVQAGGSLRLSCAASGSTFPYYAMGWYRQAPGKERELVAVITSSGSRTYYADSVKGRFTISRDNAKNTVYLPMNSLKPEDTAVYYCARDTRYYLPYRSQYDYWGQGTQVTVSS	high polyreactivity
QVQIEESRVGLVQAGGSLRLSCAASGSIIYENMGWYRPAPGKERELVASISWSGTSTYADSVKGRFTMTRDNAKTTVYLLMNSLKPEDTAVYSCAAYPYPFYQSKYLGIGYGFWGQGTQVTVSS	high polyreactivity
QVQLVESCGGLVQAGGSLRLSCAASGSTFTVNAMGGYRQAPGKERELVAAINWSGGSTYYADSVKGRFTISRDNAKNTVYFQMNSLKPEDTAVYYCNKDREPYGYWSFDYWGQGSQVTVSS	low polyreactivity
QVQLVESGGGLVQAGGSLRLRCAASGSTFSRYTMGWYRQAPGKERELVAAISKSGGSTYYADSVKGRFTISRDNAKNTVYLQMNSLKPEDTAVYYCAALVRAGTSLDFDYWGQGTQVTVSS	high polyreactivity
QVQLVESGGGLVQAGGSLRLSCAASGYTSRSNAMGWYRQAPGKERELVAAIRGGGNTKYADSVKGRFTISRDTAKNTVYLQMNSLKPEDTAVYYCAVVTGSFRTRYTYYYWGLGTQVTVSS	high polyreactivity
QVQLVESGGGLVQAGGSLRLSCAASGYTGVYALGWYRQAPGKERELVADITSGGNTDYADSVKGRFTISRDNAKNTVYLQMNSLKPEDTAVYYCATPYRRLNTWIYDYWGQGTQVTVSS	high polyreactivity
QVQLVESGGGLVQAGGILRLTCAASGRTNTYNAMGSYRQAPGKERELVAAITWSGGSTYYADSVKGRFTISRDNAKNTVYLQMNSLKPEDTAVYYCAKEFYYSSGFDYWGQGTQVTVSS	low polyreactivity
QVQLVESGGGLVQAGGSLRLSCAASGRIFSVYGMGWYRQAPGKERELVAAMSSSAGSTNYADSVKGRFTISRDNAKNTVYLQMISLKPEDTAVYYCAAYYRRVVYYPTAYYIRKYDYWGQGSQVTVSS	high polyreactivity
QVHLVESGGGLVQAGGSLRLSCAASGRIFATNAMGWYRPAPGKERELVATITRSAGRTYYADSVKGRFTISRDNAKNTVYLQMNSLKPEDTAVYYCAASYWDTEPGYREYDYWGQGTQVTVSS	low polyreactivity
QVQLVESGGGLVPAGGSLRLSCPAGGFIFGSNVMGWYRQAPGKEREFVAAITYGGVSTYYADSVKGRFTISRDNAKNTVYLQMNSLKPEDTAVYYCNTDRGKRLGKQASSKRYDYWGQGTQVTVSS	high polyreactivity
QVQIVESGGGLVQAGGSLRLSCAPSGSTFWLYAMGWYRHAPGKERELVASISSRGGSTYYADSVTGRFTISRDNAKNTVYLQMNSLKPEDTAVYYCAAKDIRYDDEYWGQGTQVTVSS	low polyreactivity
QVQLVESGGGLVQAGGSLRLSCAASGFTFGWYAMGWYRQSPGKERELVAAISYSGGSTYYADSVKGRFTISRDNAKNTVYLQMNSLKPEDTAVYYCNAVLRLRVDSWGQGTQVTVSS	high polyreactivity
QVQLVESGGGLVQAGGSLRLSCAASGFTFRRYAMGWYRQAAGKERELVASNSWRGGTTYYADSVKGRFTISRDNAKNTVYLQMNSLKPDDTAVYYCARGAATPPGYYSSGQGTQVTVSS	low polyreactivity
QVQLVDSGGGLVQAGGSLRLSCAASGIIFAYNAMGWYRQAPGKERELVAAITSGTSTHYADSVKGRFTISRDNAKNSVYLHINSLNPEDTAVYYCNADYFFEFDYWGQGTQVTVSS	low polyreactivity
QVQLVESGGGLVQAGGSLRLSCAASGRIFLGYAMGWYRQAPGKERELVAAISAGGGSTYYADSVKGRFTISRDTAKNTVYLLMNSLKPEDTAVYYCAARRPHIPVKTYDYWGQGTQVTVSS	high polyreactivity
QVQLVESGGGLVQAGGSLRLSCAASGFTFSTNAMGWYRQAPGKERELVAAISWSGSSTYYADSVKGRFTISRDNAKNTVYLQMNSLKPEDTAVYYCAKSRGQADPTYDYWGQGTQVTVSS	low polyreactivity
QVQLVESGGGLVQAGGSLRLSCAASGSTFGTYAMGWYRQAPGKERELVATITRRGGRTYYADSVKGRFTISRDNAKNTVYLQMNSLKPEDTAVYYCNAVVRQQGAYDYWGQGTQVTVSS	high polyreactivity
QVQLVESGGGLVQAGGSLRLSCAASGRIFYPYAMGWYRQAPGKERELVALISWGGGSTYYADSVKGRFTISRDNAKNTVYLQMNSLKPEDTAVYYCAASYVGYWYRRGYGYWGQGTQVTVSS	high polyreactivity
QVQLVESGGGLVQAGGSLRLSCAASGTTFFNNAMGWYRQAPGKERELVAAITSGRTYYADSVKGRFTISRDNAKNTVYLLMNSLKPEDTAVDYCAKDADQDADKPFQFTMDYWGQGTEVTVSS	low polyreactivity
QVQLVESGGGLVQAGGSLRLSCAASGRTFFYYSMGWYIQAPGKEREFVSGISKSGSSTYYADSVKGRFTISRDNPKNTVYLQLISLKPEDTADSYCAAVSKRGAGGRRTEYWGQGTQVTVSA	high polyreactivity
QVQLVESGGGLVQAGGSLRLSCAASGSTFSEYVMGWYRQAPGKQRELVAAIRSNGGSTYYADSVKGRFTISRDNAKNTVYLQMNSLKPEDTAVYYCNRVYSRRTYNSPLYDYWGQGTQVTVSS	high polyreactivity
QVQLVESGGGLVQAGGSLRLSFAASGRIFYVYAMGWYRQAPGKERELVAAITYSGGSTYYADSVKGRFTISRDNAKNTVYLQMNSLKPEDTAVYYCATEGSYTRWSRGLDYWGQGTQVTVSS	low polyreactivity
QVQRVESAGGLVQAGGSLRLSCAPSGRILPSNAMGWYRQAPGKERELVAGITSGGSTDYADSVKGRFTISRDNAKNTVYIQMHSLKPEDTAVYYCAADSRRYGVRFDYWGQGTQVTVSS	low polyreactivity
QVQLQESGGGLVQAGGSLLSCAASGTISYYREMGWYRQAPGKERELVAGIGVGTITYYADSVKGRFTISRHNAINTVYMQMNSLKPEDTAVYYCAAHIDGNDSHAYWGQGTQVTVSS	low polyreactivity
QVQLVESGGGLVQAGGSLRLSCAASGSTFYPYAMGWYRQAPGKEREFVAAISGRGGSTFYADSVKGRFTISRDNAKNTVYIQMNSLKPEDTAVYYCAASVFKLVGYDYWGQGTQVTLSS	high polyreactivity
QVQLVETGGGLVQAGGSLRLSSGASGFIFVRNAMGWYRQAPGKEREFVAAINSSGGRTYYADSVKGRFTISRDNANNTVNLQMNSLKPEDTAVYYCAARPQPKKFYYWGQGTQETVSS	high polyreactivity
QVQLVESGGGLVQAGGSLRLSCAASGSIFAVYAMVWYRQAPGKERELVAAISWSVGSTYYADSVKGRFTISRDNAKNTVYLQMNRLKPEDTAVYYCAADLAYYLDYVEYFTEIELEGYWGQGTQVTVSS	low polyreactivity
QVQLVESGRGLVHAGGSHRISCAASGRTFYYYAMGWYRQAPGKERELVAAITRGGSTNYADSVKGRFTISRDNAKITVYLQMNSLKPEDTAVYYCAQPWFYQNRGYDYWGQGTQVTVSS	low polyreactivity
QVQLVESGGGLVQAGGSLRLSCAASGSTFGHYAMGCYRQAPGKERDLVAAISWSGASTYYADSVKGRFTISRDNAKNTVYLQMNSLKPEDTAVYYCAAESYRQTYYVGDGYEDDYWGQGTQVTVSS	low polyreactivity
QVQLVESGGGLVQAGGSLRLSCAASGFIFWHYAMGWYRQAPGKERELVAAISWSGGRTYYADSVKGRFTISRDNAKNTVYLQMNSLKPEDTAVYYCARSKRVTPYEYDYWGQGTQVTVSS	high polyreactivity
